Assays:
[1] = target: T1, plasma-membranous human MSLN on cell lines (H226, HPAC, H292, OVCAR-3, MeT-5A) (human, UniProt Q13421 296-598); assay: cell-based or functional assay
[2] = target: soluble mesothelin (sMSLN); assay: cell-based or functional assay
[3] = target: T1, plasma-membranous human MSLN on cell …; assay: cell-based or functional assay; remark: listed apart in the source
[4] = target: T1, plasma-membranous human MSLN on cell …; assay: cell-based or functional assay; remark: listed apart in the source
[5] = target: T1, plasma-membranous human MSLN on cell …; assay: cell-based or functional assay; remark: listed apart in the source
[6] = target: T1, plasma-membranous human MSLN on cell …; assay: cell-based or functional assay; remark: listed apart in the source
[7] = target: T1, plasma-membranous human MSLN on cell …; assay: cell-based or functional assay; remark: listed apart in the source
[8] = target: T1, plasma-membranous human MSLN on cell …; assay: flow cytometry on H226 cells
[9] = target: T1, plasma-membranous human MSLN on cell …; assay: flow cytometry on H292 cells
[10] = target: T1, plasma-membranous human MSLN on cell …; assay: flow cytometry on HPAC cells
[11] = target: T2, human recombinant CD3ε protein (Sino Biological) (human, UniProt P07766 23-126); assay: SPR, CD3ε amine-coupled to CM5, antibody injected
T2 construct: Bought protein; also called recombinant human CD3ε; human CD3ε

[12] = target: T1, plasma-membranous human MSLN on cell …; assay: flow cytometry on H226 cells, protein L-PE, 4PL fit
[13] = target: T1, plasma-membranous human MSLN on cell …; assay: flow cytometry on H292 cells, protein L-PE, 4PL fit
[14] = target: T1, plasma-membranous human MSLN on cell …; assay: flow cytometry on HPAC cells, protein L-PE, 4PL fit
[15] = target: T1, plasma-membranous human MSLN on cell …; assay: flow cytometry on Met-5A cells, protein L-PE, 4PL fit
[16] = target: T2, human recombinant CD3ε protein (Sino …); assay: SPR, CD3ε amine-coupled to CM5, antibody injected; footnote: ka1 of a two-state fitting model
[17] = target: T2, human recombinant CD3ε protein (Sino …); assay: SPR, CD3ε amine-coupled to CM5, antibody injected; footnote: kd1 of a two-state fitting model
[18] = target: T3, recombinant human MSLN (purchased from Peprotech) (human, UniProt Q13421 296-598, limits assumed); assay: SPR (Biacore T200), human MSLN; which of the two formats (MSLN immobilized / antibody captured) not given
T3 construct: Bought protein; also called recombinant human mesothelin

B1: PRO2000 (MATCH4, biMSLNhigh KD×CD3×hSA) (other)
chain 1: DIQMTQSPSSLSASVGDRVTITCQASQNIYSNLAWYQQKPGKAPKLLIYDASDLASGVPSRFSGSGSGTDFTLTISSLQPEDFATYYCQQVRSSSDIDNPFGTGTKVTVLGGGGGSGGGGSGGGGSGGGGSQVQLVESGGGLVQPGGSLRLSCAASGFSLSSYAMGWVRQAPGKGLEWIGYISTINNTYYASWAKGRFTISRDNSKNTVYLQMNSLRAEDTAVYYCAREIRSGWVDYGFSIWGQGTLVTVSSGGGGSGGGGSEVQLVESGGGLVQPGGSLRLSCAASGFSLSSYDMSWVRQAPGKGLAWIGASYASGPTYYASWAKGRFTISRDNSKNTVYLQMNSLRAEDTATYFCARGGWTGTSHSNIWGQGTLVTVSSGGGSGGGSEVQLVESGGGLVQPGGSLRLSCAASGFSFSSSYWICWVRQAPGKCLEWVGCVFTGDGTTYYASWAKGRFTISRDNSKNTVYLQMNSLRAEDTATYFCARPVSVYYYGMDLWGQGTLVTVSS
chain 2: DIQMTQSPSSLSASVGDRVTITCQASQNIYSNLAWYQQKPGKAPKLLIYDASDLASGVPSRFSGSGSGTDFTLTISSLQPEDFATYYCQQVRSSSDIDNPFGTGTKVTVLGGGGGSGGGGSGGGGSGGGGSQVQLVESGGGLVQPGGSLRLSCAASGFSLSSYAMGWVRQAPGKGLEWIGYISTINNTYYASWAKGRFTISRDNSKNTVYLQMNSLRAEDTAVYYCAREIRSGWVDYGFSIWGQGTLVTVSSGGGGSGGGGSDVVMTQSPSSLSASVGDRVTITCQASQIISSRSAWYQQKPGQPPKLLIYQASKLASGVPSRFSGSGSGTDFTLTISSLQPEDFATYYCQCTYIDSNFGAFGCGTKLTVLGGGSGGSDIQMTQSPSSLSASVGDRVTITCQSSQSVFSNNYLAWFQQKPGQSPKRLIYSASTLASGVPSRFSGSGSGTDFTLTISSLQPEDFATYYCLGSYACSSADCYVFGTGTKVTVLG
notes: Heterodimer; also called biMSLN.CD3
[1]
  fold CD8+ T cell activation potency against PRO1872, HPAC cells: 4 fold
  fold killing potency against PRO1872, H226 cells: 75 fold
[2]
  fold reduction of H226 killing potency with 500 ng/ml sMSLN: 17 fold
  shift of H226 killing potency with 100 ng/ml sMSLN: 5 fold
[3]
  EC50 CD8+ T cell activation, Met-5A cells: 544 pM
  EC50 target cell killing, H226 cells (flow cytometry cytotoxicity assay with PBMCs): 0.07 pM
  EC50 target cell killing, Met-5A cells: 145 pM
[4]
  EC50 CD8+ T cell activation, H292 cells: 114 pM
  EC50 CD8+ T cell activation, HPAC cells: 12.2 pM
  EC50 target cell killing, H292 cells: 652 pM
  EC50 target cell killing, HPAC cells: 40.8 pM
[5]
  EC50 H226 target cell killing, 50 ng/ml soluble mesothelin: 31.2 pM
  EC50 H226 target cell killing, 500 ng/ml soluble mesothelin: 165 pM
  EC50 H226 target cell killing, no mesothelin: 9.73 pM
[6]
  EC50 CD8+ T cell activation with H226 cells, 50 ng/ml MSLN: 7.85 pM
  EC50 CD8+ T cell activation with H226 cells, 500 ng/ml MSLN: 42.4 pM
  EC50 CD8+ T cell activation with H226 cells, no MSLN: 1.99 pM
[7]
  EC50 target cell killing, H226 cells, 100 ng/ml sMSLN: 3.45 pM
  EC50 target cell killing, H226 cells, no sMSLN: 0.7 pM
  max. killing, H226 cells, 100 ng/ml sMSLN: 58.5%
  max. killing, H226 cells, no sMSLN: 49.4%
[8]
  fold binding against PRO1872: 3 fold
[9]
  fold lower binding against PRO1872: 2 fold
[10]
  fold binding against PRO1872: 1.5 to 2 fold
[11]
  Kd: 20000 pM
[12]
  EC50: 659 pM
  max. binding (MFI): 362000 MFI
[13]
  EC50: 1030 pM
  max. binding (MFI): 6960 MFI
[14]
  EC50: 1480 pM
  max. binding (MFI): 17500 MFI
[15]
  EC50: 128 pM
  max. binding (MFI): 7950 MFI
[16]
  kon: 117000 M⁻¹ s⁻¹
[17]
  koff: 0.00391 s⁻¹
[18]
  Kd: 1060 pM
  koff: 0.000421 s⁻¹
  kon: 398000 M⁻¹ s⁻¹
